Laboratory results reported in IntAct's records for PubMed 14673118.

B1: Thioredoxin (Synechocystis sp. (strain PCC 6803 / Kazusa)), P52231 (parent)
chain: MSATPQVSDASFKEDVLDSELPVLVDFWAPWCGPCRMVAPVVDEISQQYEGKVKVVKLNTDENPNTASQYGIRSIPTLMIFKGGQRVDMVVGAVPKTTLASTLEKYL
partner: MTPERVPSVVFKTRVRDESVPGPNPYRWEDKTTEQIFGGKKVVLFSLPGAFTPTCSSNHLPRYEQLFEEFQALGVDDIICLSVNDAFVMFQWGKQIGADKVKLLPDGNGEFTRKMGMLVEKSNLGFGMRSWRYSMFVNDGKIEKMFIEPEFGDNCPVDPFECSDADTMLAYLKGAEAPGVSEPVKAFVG
B2: Thioredoxin (Synechocystis sp. (strain PCC 6803 / Kazusa)), P52231 (parent)
chain: B1 chain
partner: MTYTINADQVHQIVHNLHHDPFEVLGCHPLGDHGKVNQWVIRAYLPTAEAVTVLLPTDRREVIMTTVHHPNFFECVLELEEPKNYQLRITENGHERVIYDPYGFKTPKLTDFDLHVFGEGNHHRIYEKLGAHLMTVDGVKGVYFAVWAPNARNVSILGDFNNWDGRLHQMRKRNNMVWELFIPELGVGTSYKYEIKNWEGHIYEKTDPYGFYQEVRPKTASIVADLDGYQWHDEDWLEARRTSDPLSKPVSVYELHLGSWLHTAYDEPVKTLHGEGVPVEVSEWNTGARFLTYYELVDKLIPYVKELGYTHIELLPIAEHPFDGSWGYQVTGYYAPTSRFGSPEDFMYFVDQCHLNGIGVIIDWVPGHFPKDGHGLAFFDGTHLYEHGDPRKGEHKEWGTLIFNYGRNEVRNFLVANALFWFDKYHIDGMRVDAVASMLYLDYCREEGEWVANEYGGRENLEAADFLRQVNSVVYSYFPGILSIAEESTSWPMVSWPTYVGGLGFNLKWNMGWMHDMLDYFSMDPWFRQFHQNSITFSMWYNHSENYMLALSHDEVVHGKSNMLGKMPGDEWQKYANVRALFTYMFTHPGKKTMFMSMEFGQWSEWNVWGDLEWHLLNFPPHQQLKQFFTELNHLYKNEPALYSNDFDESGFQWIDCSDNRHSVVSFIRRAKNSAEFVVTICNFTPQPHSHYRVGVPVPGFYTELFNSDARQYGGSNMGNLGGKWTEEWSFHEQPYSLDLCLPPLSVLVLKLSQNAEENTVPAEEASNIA
B3: Thioredoxin (Synechocystis sp. (strain PCC 6803 / Kazusa)), P52231 (parent)
chain: B1 chain
partner: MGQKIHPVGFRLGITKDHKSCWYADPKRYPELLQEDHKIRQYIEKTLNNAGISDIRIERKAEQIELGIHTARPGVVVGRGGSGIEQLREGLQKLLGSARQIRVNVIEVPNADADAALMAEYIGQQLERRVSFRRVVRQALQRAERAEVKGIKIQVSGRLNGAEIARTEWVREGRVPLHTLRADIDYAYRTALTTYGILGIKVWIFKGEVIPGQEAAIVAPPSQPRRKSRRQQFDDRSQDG
B4: Thioredoxin (Synechocystis sp. (strain PCC 6803 / Kazusa)), P52231 (parent)
chain: B1 chain
partner: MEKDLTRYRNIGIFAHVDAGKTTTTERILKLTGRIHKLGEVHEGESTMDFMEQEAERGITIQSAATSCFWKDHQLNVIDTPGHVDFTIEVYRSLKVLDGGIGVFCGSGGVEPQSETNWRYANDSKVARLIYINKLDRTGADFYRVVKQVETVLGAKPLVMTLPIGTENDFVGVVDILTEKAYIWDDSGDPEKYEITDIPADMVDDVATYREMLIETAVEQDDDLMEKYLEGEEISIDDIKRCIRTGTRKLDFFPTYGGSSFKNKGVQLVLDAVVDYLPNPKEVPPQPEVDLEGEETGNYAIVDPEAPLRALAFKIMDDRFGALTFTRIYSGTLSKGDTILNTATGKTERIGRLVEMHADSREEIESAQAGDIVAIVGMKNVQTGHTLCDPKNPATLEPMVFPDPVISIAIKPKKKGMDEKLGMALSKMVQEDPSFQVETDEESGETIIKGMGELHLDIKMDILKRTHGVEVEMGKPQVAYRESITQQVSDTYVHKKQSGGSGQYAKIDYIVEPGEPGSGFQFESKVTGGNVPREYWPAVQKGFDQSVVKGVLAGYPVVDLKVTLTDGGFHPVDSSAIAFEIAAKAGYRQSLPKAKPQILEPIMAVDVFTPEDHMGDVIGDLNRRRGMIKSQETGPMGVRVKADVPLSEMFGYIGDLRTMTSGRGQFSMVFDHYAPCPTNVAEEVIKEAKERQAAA
B5: Thioredoxin (Synechocystis sp. (strain PCC 6803 / Kazusa)), P52231 (parent)
chain: B1 chain
partner: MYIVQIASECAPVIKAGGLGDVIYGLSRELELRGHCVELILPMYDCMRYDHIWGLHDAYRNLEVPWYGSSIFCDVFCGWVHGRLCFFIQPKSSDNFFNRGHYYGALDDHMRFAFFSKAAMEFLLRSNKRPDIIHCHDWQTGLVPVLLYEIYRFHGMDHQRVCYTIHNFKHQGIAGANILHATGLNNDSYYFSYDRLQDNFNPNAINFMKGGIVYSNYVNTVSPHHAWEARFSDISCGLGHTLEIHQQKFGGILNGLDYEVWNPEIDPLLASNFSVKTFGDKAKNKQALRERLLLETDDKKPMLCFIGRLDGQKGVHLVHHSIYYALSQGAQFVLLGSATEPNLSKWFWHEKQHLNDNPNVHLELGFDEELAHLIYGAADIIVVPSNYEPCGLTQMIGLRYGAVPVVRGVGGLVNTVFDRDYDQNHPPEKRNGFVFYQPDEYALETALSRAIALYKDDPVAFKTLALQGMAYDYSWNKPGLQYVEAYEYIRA
B6: Thioredoxin (Synechocystis sp. (strain PCC 6803 / Kazusa)), P52231 (parent)
chain: B1 chain
B7: Thioredoxin (Synechocystis sp. (strain PCC 6803 / Kazusa)), P52231 (parent)
chain: B1 chain
partner: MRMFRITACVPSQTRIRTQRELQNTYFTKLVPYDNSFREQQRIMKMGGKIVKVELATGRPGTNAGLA

Variants of: B1
Settings: with prx5_syny3 prx5, P73728

Row | Variant | effect of a mutation on the interaction
1 | MSATPQVSDASFKEDVLDSELPVLVDFWAPWCGPSRMVAPVVDEISQQYEGKVKVVKLNTDENPNTASQYGIRSIPTLMIFKGGQRVDMVVGAVPKTTLASTLEKYL | increasing interaction

Variants of: B2
Settings: with glgb_syny3 glgB

Row | Variant | effect of a mutation on the interaction
2 | MSATPQVSDASFKEDVLDSELPVLVDFWAPWCGPSRMVAPVVDEISQQYEGKVKVVKLNTDENPNTASQYGIRSIPTLMIFKGGQRVDMVVGAVPKTTLASTLEKYL | increasing interaction

Variants of: B3
Settings: with rs3_syny3 rpsC

Row | Variant | effect of a mutation on the interaction
3 | MSATPQVSDASFKEDVLDSELPVLVDFWAPWCGPSRMVAPVVDEISQQYEGKVKVVKLNTDENPNTASQYGIRSIPTLMIFKGGQRVDMVVGAVPKTTLASTLEKYL | increasing interaction

Variants of: B4
Settings: with efg1_syny3 fusA

Row | Variant | effect of a mutation on the interaction
4 | MSATPQVSDASFKEDVLDSELPVLVDFWAPWCGPSRMVAPVVDEISQQYEGKVKVVKLNTDENPNTASQYGIRSIPTLMIFKGGQRVDMVVGAVPKTTLASTLEKYL | increasing interaction

Variants of: B5
Settings: with glga2_syny3 glgA2, P72623

Row | Variant | effect of a mutation on the interaction
5 | MSATPQVSDASFKEDVLDSELPVLVDFWAPWCGPSRMVAPVVDEISQQYEGKVKVVKLNTDENPNTASQYGIRSIPTLMIFKGGQRVDMVVGAVPKTTLASTLEKYL | increasing interaction

Variants of: B6
Settings: with glts_syny3 gltS

Row | Variant | effect of a mutation on the interaction
6 | MSATPQVSDASFKEDVLDSELPVLVDFWAPWCGPSRMVAPVVDEISQQYEGKVKVVKLNTDENPNTASQYGIRSIPTLMIFKGGQRVDMVVGAVPKTTLASTLEKYL | increasing interaction

Variants of: B6
Settings: with rbl_syny3 cbbL

Row | Variant | effect of a mutation on the interaction
7 | MSATPQVSDASFKEDVLDSELPVLVDFWAPWCGPSRMVAPVVDEISQQYEGKVKVVKLNTDENPNTASQYGIRSIPTLMIFKGGQRVDMVVGAVPKTTLASTLEKYL | increasing interaction

Variants of: B6
Settings: with eftu_syny3 tuf

Row | Variant | effect of a mutation on the interaction
8 | MSATPQVSDASFKEDVLDSELPVLVDFWAPWCGPSRMVAPVVDEISQQYEGKVKVVKLNTDENPNTASQYGIRSIPTLMIFKGGQRVDMVVGAVPKTTLASTLEKYL | increasing interaction

Variants of: B6
Settings: with gltb_syny3 gltB

Row | Variant | effect of a mutation on the interaction
9 | MSATPQVSDASFKEDVLDSELPVLVDFWAPWCGPSRMVAPVVDEISQQYEGKVKVVKLNTDENPNTASQYGIRSIPTLMIFKGGQRVDMVVGAVPKTTLASTLEKYL | increasing interaction

Variants of: B6
Settings: with apce_syny3 apcE

Row | Variant | effect of a mutation on the interaction
10 | MSATPQVSDASFKEDVLDSELPVLVDFWAPWCGPSRMVAPVVDEISQQYEGKVKVVKLNTDENPNTASQYGIRSIPTLMIFKGGQRVDMVVGAVPKTTLASTLEKYL | increasing interaction

Variants of: B7
Settings: with pyc1_syny3 apcC

Row | Variant | effect of a mutation on the interaction
11 | MSATPQVSDASFKEDVLDSELPVLVDFWAPWCGPSRMVAPVVDEISQQYEGKVKVVKLNTDENPNTASQYGIRSIPTLMIFKGGQRVDMVVGAVPKTTLASTLEKYL | increasing interaction
